The values below are quoted from earlier work in paper PMC3161823.

The target in the data set is Complement factor H (Homo sapiens) (UniProt P08603).
Sequence of Complement factor H (Homo sapiens) (P08603 19-1231): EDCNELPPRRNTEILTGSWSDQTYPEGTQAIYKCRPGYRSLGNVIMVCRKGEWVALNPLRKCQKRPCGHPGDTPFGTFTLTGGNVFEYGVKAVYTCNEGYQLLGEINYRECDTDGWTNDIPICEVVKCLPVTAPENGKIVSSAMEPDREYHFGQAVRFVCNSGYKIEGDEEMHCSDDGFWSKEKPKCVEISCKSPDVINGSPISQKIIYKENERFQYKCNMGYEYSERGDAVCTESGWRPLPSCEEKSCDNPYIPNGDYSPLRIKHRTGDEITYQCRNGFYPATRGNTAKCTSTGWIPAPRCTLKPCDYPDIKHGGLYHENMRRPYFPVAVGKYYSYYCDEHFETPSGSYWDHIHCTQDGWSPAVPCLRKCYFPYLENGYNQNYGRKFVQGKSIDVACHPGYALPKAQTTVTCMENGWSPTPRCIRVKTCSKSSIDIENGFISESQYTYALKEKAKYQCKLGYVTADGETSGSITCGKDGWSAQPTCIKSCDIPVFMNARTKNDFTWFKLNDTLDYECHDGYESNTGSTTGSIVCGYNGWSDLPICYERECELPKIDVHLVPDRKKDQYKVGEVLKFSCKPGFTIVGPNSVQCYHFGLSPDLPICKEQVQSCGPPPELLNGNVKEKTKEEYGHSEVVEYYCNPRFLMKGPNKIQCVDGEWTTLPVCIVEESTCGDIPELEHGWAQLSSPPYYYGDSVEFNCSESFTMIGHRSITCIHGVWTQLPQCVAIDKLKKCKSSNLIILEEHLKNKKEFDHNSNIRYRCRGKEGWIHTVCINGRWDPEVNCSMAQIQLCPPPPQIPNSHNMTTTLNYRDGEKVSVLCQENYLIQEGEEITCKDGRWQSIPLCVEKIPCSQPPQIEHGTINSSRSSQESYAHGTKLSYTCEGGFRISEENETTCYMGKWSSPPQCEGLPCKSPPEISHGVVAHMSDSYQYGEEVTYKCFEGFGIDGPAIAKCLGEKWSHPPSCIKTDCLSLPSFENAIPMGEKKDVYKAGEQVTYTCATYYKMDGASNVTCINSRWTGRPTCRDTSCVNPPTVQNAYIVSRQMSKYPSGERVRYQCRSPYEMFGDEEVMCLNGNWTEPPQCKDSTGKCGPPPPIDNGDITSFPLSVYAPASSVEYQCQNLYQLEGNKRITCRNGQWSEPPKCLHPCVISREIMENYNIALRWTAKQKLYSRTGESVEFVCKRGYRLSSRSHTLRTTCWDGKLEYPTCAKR

Sequence of PTX3 (P26022 18-381): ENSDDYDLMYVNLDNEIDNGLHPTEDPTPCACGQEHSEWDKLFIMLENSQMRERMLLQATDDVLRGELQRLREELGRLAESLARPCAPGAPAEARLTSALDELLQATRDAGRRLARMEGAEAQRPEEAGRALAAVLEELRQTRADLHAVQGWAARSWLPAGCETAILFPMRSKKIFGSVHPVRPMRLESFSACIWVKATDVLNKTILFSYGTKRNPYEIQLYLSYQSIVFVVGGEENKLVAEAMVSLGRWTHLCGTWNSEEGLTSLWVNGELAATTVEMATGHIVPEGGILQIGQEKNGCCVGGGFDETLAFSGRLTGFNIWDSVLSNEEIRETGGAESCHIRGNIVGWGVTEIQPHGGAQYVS

PTX3 (from UniProt P26022): the Kd (as a rule, the constant that tells how readily two partners part at equilibrium) was 110 nM.
